Patent US20130171163

How the values were obtained:
VEGFR2 = VEGFR2 (UniProt P35968)
[1] = target: insulin-like growth-factor-1 receptor beta subunit (IGF-1Rβ) (UniProt P08069)
Sequence of insulin-like growth-factor-1 receptor beta subunit (IGF-1Rβ) (P08069 whole entry, looked up, tested part not stated): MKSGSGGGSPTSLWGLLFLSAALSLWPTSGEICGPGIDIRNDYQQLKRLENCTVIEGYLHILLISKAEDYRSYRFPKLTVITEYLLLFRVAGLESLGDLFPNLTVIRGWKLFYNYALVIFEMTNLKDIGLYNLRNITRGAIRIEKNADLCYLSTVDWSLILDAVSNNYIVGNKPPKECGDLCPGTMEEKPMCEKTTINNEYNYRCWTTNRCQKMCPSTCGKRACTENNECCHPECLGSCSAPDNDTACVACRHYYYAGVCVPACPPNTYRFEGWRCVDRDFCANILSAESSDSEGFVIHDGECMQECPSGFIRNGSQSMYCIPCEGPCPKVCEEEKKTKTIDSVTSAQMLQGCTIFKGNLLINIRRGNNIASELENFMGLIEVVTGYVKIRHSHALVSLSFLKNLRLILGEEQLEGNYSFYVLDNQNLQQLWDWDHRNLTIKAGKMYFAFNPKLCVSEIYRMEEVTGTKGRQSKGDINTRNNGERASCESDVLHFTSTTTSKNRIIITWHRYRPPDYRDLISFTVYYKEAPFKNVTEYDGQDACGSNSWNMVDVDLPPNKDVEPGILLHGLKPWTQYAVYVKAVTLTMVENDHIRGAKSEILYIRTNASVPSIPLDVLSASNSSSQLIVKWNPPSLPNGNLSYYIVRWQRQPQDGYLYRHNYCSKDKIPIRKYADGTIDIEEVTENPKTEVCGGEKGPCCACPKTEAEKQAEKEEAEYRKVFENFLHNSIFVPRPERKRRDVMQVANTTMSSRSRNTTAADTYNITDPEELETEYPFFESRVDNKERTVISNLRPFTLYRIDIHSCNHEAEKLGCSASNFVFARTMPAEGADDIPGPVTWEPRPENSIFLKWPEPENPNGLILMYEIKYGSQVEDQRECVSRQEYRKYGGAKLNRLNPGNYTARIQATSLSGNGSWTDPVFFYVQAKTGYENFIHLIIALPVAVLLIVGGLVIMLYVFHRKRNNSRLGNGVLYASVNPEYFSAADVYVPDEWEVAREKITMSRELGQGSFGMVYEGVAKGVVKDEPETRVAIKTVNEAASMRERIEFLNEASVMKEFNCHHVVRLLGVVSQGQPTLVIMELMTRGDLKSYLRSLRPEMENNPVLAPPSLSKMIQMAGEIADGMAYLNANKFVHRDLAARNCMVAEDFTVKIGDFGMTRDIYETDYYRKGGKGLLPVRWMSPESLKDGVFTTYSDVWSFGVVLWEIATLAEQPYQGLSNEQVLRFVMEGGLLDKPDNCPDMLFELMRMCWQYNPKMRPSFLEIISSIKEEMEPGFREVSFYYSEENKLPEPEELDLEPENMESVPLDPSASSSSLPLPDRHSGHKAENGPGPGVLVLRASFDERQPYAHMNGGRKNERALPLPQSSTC

Sequence of VEGFR2 (P35968 20-1356): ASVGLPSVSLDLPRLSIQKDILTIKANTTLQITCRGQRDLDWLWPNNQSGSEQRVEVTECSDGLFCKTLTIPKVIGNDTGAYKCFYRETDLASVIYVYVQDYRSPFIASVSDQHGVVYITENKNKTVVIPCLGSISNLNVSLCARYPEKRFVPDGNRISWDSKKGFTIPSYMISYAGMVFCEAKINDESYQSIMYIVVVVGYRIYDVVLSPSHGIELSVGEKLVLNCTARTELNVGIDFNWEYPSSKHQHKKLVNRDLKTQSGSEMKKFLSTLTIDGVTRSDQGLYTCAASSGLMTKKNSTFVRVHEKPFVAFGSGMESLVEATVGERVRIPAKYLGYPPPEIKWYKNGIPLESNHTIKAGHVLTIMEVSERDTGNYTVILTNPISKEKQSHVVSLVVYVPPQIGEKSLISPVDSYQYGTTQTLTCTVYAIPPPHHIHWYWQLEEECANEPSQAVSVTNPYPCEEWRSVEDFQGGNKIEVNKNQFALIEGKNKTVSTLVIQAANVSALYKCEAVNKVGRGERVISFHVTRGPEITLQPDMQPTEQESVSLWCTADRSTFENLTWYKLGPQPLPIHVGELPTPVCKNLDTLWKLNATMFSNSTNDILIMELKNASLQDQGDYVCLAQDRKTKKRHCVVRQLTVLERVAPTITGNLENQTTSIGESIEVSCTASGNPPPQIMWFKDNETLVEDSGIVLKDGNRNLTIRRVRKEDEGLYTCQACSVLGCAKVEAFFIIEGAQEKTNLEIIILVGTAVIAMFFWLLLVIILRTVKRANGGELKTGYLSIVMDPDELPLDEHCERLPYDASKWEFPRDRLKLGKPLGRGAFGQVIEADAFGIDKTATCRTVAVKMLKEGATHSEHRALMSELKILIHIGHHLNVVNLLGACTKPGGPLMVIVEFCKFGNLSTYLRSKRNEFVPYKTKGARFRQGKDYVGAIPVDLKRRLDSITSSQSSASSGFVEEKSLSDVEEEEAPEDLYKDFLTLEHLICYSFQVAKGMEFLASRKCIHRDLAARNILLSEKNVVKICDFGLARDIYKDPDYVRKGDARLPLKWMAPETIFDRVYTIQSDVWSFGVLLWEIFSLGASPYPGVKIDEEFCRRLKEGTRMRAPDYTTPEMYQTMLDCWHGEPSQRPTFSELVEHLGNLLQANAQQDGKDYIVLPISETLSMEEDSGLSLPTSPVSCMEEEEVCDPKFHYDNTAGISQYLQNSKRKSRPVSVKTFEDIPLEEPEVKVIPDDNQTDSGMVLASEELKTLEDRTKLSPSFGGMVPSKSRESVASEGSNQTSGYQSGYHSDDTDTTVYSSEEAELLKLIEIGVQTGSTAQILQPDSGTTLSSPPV

In the case of “leukocyte antigen-related protein tyrosine phosphatase (LAR)”, the “VEGF-induced tyrosine phosphorylation of VEGFR2 in HUVECs overexpressing LAR (AdLAR)” value (VEGFR2) is reported as “overexpression of LAR had no effect on VEGF-induced tyrosine phosphorylation of VEGFR2 in HUVECs”, the “IGF-1-induced tyrosine phosphorylation of IGF-1Rβ in HUVECs overexpressing LAR (AdLAR); IP with anti-IGF-1Rβ, Western blot with anti-phosphotyrosine” value [1] is reported as “LAR overexpression inhibited IGF-1-induced tyrosine phosphorylation of IGF-1Rβ in a dose-dependent manner, with maximum inhibition at 2.5 MOI” and the “IGF-1Rβ autophosphorylation in IGF-1-treated HUVECs after LAR knockdown with siRNA” value [1] is reported as “knockdown of endogenous LAR with LAR-specific siRNA (FIGS. 3A-3B) significantly increased IGF-1Rβ activity, without an apparent effect on IGF-1Rβ expression levels, in HUVEC treated with IGF-1”.
